Test results published in patent publication US20250270315A1 (ELPISCIENCE SUZHOU BIOPHARMA, published 2025).
Changes are numbered by the printed parent chain.

T1: C57BL/6 mouse SIRPα stably expressed on CHOK1 cells (C57BL/6 mouse, UniProt P97797 32-513)
T1 construct: whole, on cells; also called CHOK1-C57BL/6 mouse SIRPα
T1 sequence (looked up): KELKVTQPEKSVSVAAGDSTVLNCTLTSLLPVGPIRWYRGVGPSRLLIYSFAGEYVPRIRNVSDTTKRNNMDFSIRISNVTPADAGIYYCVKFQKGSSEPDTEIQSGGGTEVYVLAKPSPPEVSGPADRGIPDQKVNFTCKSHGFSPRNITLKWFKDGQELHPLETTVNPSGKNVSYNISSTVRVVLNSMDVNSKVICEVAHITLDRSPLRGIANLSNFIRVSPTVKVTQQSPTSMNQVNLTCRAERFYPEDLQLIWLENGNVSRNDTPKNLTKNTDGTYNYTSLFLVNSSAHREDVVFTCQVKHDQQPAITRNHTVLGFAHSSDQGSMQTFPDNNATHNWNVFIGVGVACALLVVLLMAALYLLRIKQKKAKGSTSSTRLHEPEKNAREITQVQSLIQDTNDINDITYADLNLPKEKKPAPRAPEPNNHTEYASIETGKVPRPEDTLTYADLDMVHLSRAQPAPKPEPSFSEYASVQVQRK

B1: HEFLB (antibody, V domains shown)
VH: EVQLVQSGAEVKKPGESLRISCKASGYSFTSYWVHWVRQMPGKGLEWMGNIDPSDSDTHYSPSFQGHVTLSVDKSISTAYLQLSSLKASDTAMYYCVRGGTGTLAYFAYWGQGTLVTVSS
VL: DVVMTQSPLSLPVTLGQPASISCRSSQSLVHSYGNTYLYWFQQRPGQSPRLLIYRVSNRFSGVPDRFSGSGSGTDFTLKISRVEAEDVGVYYCFQGTHVPYTFGGGTKVEIK
B2: 015 (antibody, V domains shown)
VH: EVQLQQSGVEVVQPGASVKLSCTASGFNIEAYYMHWVKQRTEQGLEWIGRIDPEDGESKYAPKFQGKATMTADTSSSTAYLQLSSLTSDDTAVYYCVRGSYEYWGQGTTLTVSS
VL: QIVLTQSPAIMSASPGEKVTLTCSASSSVSSSYLYWYQQKPGSSPKLWIYSTSNLASGVPPRFSGSGSGTSYSLTISSMQAEDAASYFCYQWSSYPYTFGGGTKLEIK
notes: Mouse monoclonal hybridoma antibody; also called antibody 015; hybridoma antibody 015
B3: 025 (antibody, V domains shown)
VH: EVQLQQSGAELVKPGASVKLSCTASGFNIKDYYMHWVKQRTEQGLEWIGRIDPEDGETKYAPKFQGKATITADTSSNTAYLQLSSLTSEDTAVYYCDRGLAYWGQGTLVTVSA
VL: B2 VL with P61A, Q80E, Y90H
notes: Mouse monoclonal hybridoma antibody; also called antibody 025; hybridoma antibody 025
B4: 059 (antibody, V domains shown)
VH: QVQLQQSGPELVKPGASVKMSCKASGYTFSEYVLSWVKQRTGQGLEWIGEIYPGTITTYYNEKFKGKATLTADKSSNTAYIQLTSLTSEDSAVYFCGRFYDYDGGWFAYWGQGTLLTVSA
VL: ENVLTQSPEKMAVSLGQKVTMTCSASSSVSSSDLHWYQQKSGASPKPLIHGTSNLASGVPARFSGSGSGTSYSLTISSVEAEDAATYYCQQWSGYPWTFGGGTNLEIK
notes: Mouse monoclonal hybridoma antibody; also called antibody 059; hybridoma antibody 059
B5: 005 (antibody, V domains shown)
VH: EVKLVESGGGLVQPGGSLSLSCAASGFTFTDYYMSWVRQPPGKALEWLGFIKNEANGYTTESSASVKGRFTISRDNSQSILYLQMNALRAEDSATYYCARYDYYGSNYNWYFDAWGTGTTVTVSS
VL: DIVMTQSQKFMSPSVGDRVSITCKASQNVRTAVAWYQQKPGQSPKVLIHLASKRHTGVPDRFTGSGSGTDFTLTISNVQSEDLADYFCLQHWIHPLTFGAGTKLELK
notes: Mouse monoclonal hybridoma antibody purified on Protein A; also called antibody 005; hybridoma antibody 005
B6: 071 (antibody, V domains shown)
VH: QIQLVQSGPELKKPGETVKISCKASGYTFTTYGMSWVKQAPGKGLKWMVWINTYSGVPTYADDFQGRFAFSLETSASTSYLQINNLRNEDTATYFCARDPHYYGTSPAWFAYWGQGTLVTVSA
VL: DIVMTQSQKFMSTTIGDRVIITCKASQIVGIAVAWYQQKPGQSPKLLIYSASNRFTGVPDRFTGSGSGTDFTLTISNMQSEDLADYFCQQYSTYPFTFGSGTKLEIK
notes: Mouse monoclonal hybridoma antibody; also called antibody 071; hybridoma antibody 071
B7: 042 (antibody, V domains shown)
VH: QIQLVQSGPELKKPGETVKISCRASGYTFTTYGMSWVKQAPGKGLRWMGWINTYSGVSTCADDFKGRFAFSLETSATTAYLQIHNLTNEDTATYFCARDPHSYGNSPAWFPYWGQGTLVTVSA
VL: B6 VL with G16R, I20S, I28N, A32S, P40S, F55Y, T93S, F96L, E105A
notes: Mouse monoclonal hybridoma antibody; also called antibody 042; hybridoma antibody 042
B8: 073 (antibody, V domains shown)
VH: B6 VH with Q65K, R87K, T105S, A111V
VL: B6 VL with I20S, K24E, F55Y, D85N, T93A, I106V
notes: Mouse monoclonal hybridoma antibody; also called antibody 073; hybridoma antibody 073

How the values were obtained:
[1] = target: full length human SIRPα v1 with a small beta-gal fragment (ED) fused to its C-terminal, expressed in K562 … (human, UniProt P78324 31-504); test: cell-based or functional assay
[2] = target: T2, full length human SIRPα v1 stably expressed on CHOK1 or 293F cells (human, UniProt P78324 31-504); test: FACS, CHOK1-human SIRPα v1 cells
T2 construct: whole, on cells; also called CHOK1-human SIRPα v1; CHOK1-hSIRPα v1
Description: (§1) Species cross reactivity of the purified hybridoma antibodies against human, cyno and mouse SIRPα was determined by FACS assay using CHOK1 cells stably expressing human SIRPα v1, CHOK 1-cyno SIRPα and C57BL/6 mouse SIRPα. Briefly the antibodies were incubated with 2×10⁵ target cells at 4° C. for 1 hour. After washing, fluorescence labeled anti-mouse IgG 2nd antibody (Life Technologies) was added and incubated at 4° C. for 1 hour. Geometric median fluorescence intensity was detected and EC₅₀ was calculated using GraphPad Prism9.0. Other than HEFLB, all antibodies as tested can bind to cyno SIRPα. None of tested antibodies can bind to C57BL/6 mouse SIRPα.

[3] = target: T3, Fc tagged human SIRPα v1 ECD recombinant protein (human, UniProt P78324 31-370); test: ELISA, coated Fc tagged human SIRPα v1 ECD
T3 construct: range 1-370; also called hFc tagged human SIRPα v1 ECD; not shown: human IgG Fc (hFc) tag
Description: (§2) Binding specificity of the purified hybridoma antibodies against human SIRPα variants was detected by ELISA assay using recombinant proteins of Fc tagged human SIRPα v1 ECD and human SIRPα v2 ECD. Briefly the antibodies were incubated with ELISA microplate coated antigens at 37° C. for 1 hour. After washing, horseradish peroxidase (HRP) labeled anti-mouse IgG 2nd Ab (Sigma) was added and incubated at 37° C. for 1 hour. Then, 100 μl/well of TMB solution (Biotechnology) was added. After incubation for 15 minutes at room temperature, the reaction was stopped by the addition of 50 ul of 1N HCl. OD 450 nm was read and EC₅₀ was calculated using GraphPad Prism9.0. Other than HEFLB, all antibodies as tested bind to both human SIRPα v1 and human SIRPα v2. HEFLB can only bind to human SIRPα v1 but not human SIRPα v2.

[4] = target: T1, C57BL/6 mouse SIRPα stably expressed on …; test: FACS, CHOK1-C57BL/6 mouse SIRPα cells, MFI at 100 nM
Description: as §1

[5] = target: T2, full length human SIRPα v1 stably …; test: competitive FACS, mFc-CD47 ECD on CHOK1-human SIRPα v1 cells
Description: Competitive FACS assay was also set up to further compare the blocking activity of the humanized antibodies and reference antibodies. Briefly antibody and mFc tagged human CD47 ECD recombinant protein were co-incubated with CHOK1 cells stably expressing human SIRPα v1 (FIG. 16A) or human SIRPα v2 (FIG. 16B). After washing, dye labeled anti-mouse Fc 2nd antibody (Sigma) was added and incubated at 37° C. for 1 hour. Fluorescence intensity was detected. Blocking ratio was determined by blockade of human CD47 ECD recombinant protein binding to SIRPα expressed CHOK1 cells. […] In particular, HEFLB doesn't work at all for human SIRPα v2.

[6] = target: T4, human SIRPα v1 ECD recombinant protein (tag not given) (human, UniProt P78324 31-373); test: competitive ELISA, biotin human SIRPα v1 ECD on coated human CD47 ECD
T4 construct: extracellular domain; also called biotin labeled soluble human SIRPα v1 ECD recombinant protein; ELISA microplate coated human SIRPα v1 ECD
Description: Competitive ELISA assay was used to determine whether the purified hybridoma antibodies can block CD47 and SIRPα interaction. Briefly, antibody and biotin labeled soluble human SIRPα v1 ECD recombinant protein were co-incubated with ELISA microplate coated human CD47 ECD recombinant protein. After washing, HRP labeled streptavidin (HRP-SA, Sigma) was added and incubated at 37° C. for 1 hour. Then, 100 μl/well of TMB solution (Biotechnology) was added. After incubation for 15 minutes at room temperature, the reaction was stopped by the addition of 50 μl of 1N HCl. OD 450 nm was read. The blocking ratios were determined by blockade of biotin labeled human SIRPα v1 ECD recombinant protein binding to ELISA microplate coated human CD47 ECD recombinant protein. Other than 005, all antibodies as tested can block human CD47 and human SIRPα v1 interaction.

[7] = target: T5, Fc tagged human SIRPα v2 ECD recombinant protein (human); test: ELISA, coated Fc tagged human SIRPα v2 ECD
T5 construct: range 1-369; also called hFc tagged human SIRPα v2 ECD
Description: as §2

T3 sequence (P78324 31-370 limits assumed): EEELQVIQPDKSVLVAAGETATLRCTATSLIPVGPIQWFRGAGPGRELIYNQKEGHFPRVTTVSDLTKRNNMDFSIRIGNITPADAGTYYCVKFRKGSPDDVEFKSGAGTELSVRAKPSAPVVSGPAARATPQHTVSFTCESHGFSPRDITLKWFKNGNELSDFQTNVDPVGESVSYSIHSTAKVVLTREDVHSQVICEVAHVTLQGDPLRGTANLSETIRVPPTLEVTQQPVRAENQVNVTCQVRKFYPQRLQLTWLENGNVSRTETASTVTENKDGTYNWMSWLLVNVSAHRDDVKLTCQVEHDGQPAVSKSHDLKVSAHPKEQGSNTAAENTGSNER
T4 sequence (P78324 31-373): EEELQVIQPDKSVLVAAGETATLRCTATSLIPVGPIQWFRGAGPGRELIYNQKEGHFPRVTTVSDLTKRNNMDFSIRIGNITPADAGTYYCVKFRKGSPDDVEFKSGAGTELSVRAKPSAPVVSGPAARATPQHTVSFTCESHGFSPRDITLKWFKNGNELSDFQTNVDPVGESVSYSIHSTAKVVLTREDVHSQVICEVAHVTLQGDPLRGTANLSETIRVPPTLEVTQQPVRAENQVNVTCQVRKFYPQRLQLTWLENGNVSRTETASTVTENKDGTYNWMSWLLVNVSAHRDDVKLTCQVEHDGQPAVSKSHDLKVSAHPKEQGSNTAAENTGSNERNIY
T2 sequence (P78324 31-504): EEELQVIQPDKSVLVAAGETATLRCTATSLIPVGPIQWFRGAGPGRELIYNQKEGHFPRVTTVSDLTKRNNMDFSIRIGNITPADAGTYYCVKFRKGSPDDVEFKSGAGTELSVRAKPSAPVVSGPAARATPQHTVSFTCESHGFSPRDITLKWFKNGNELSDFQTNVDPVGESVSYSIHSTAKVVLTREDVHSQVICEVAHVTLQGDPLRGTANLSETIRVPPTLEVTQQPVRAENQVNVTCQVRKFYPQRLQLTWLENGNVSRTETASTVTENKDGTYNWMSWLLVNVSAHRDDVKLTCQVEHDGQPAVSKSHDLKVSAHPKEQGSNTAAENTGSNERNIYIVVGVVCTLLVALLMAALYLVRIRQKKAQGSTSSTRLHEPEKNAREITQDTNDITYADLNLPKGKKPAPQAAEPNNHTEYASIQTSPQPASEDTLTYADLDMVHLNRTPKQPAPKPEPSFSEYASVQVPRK
Sequence of full length human SIRPα v1 with a small beta-gal fragment (ED) fused to its C-terminal, expressed in K562 … (P78324 31-504): as above

Binder	SHP-1 recruitment (% blocking), Test I [1]	SHP-1 recruitment (% blocking), Test II [1]	EC50 [2]	EC50 [3]	binding result [4]	IC50 [5]	TOP blocking (%) [5]	IC50 [6]	EC50 [7]
B1	46.8%	50.3%	11.2 nM	0.17 nM	no binding (tested: 100 nM)	0.94 nM	97.6%	0.5 nM	
B2	83.6%	89.6%	1 nM	0.1 nM	no binding (tested: 100 nM)			0.3 nM	0.15 nM
B3	83.9%	91.2%	0.9 nM	0.04 nM	no binding (tested: 100 nM)			0.15 nM	0.06 nM
B4	77.5%	80.2%	0.1 nM	0.03 nM	no binding (tested: 100 nM)			0.12 nM	0.1 nM
B5	71%	82.7%	1.8 nM	0.13 nM	no binding (tested: 100 nM)				0.12 nM
B6	77.2%	72.6%	0.2 nM	0.03 nM	no binding (tested: 100 nM)			0.17 nM	0.02 nM
B7	84.8%	76.1%	0.2 nM	0.03 nM	no binding (tested: 100 nM)			0.14 nM	0.03 nM
B8	76.9%	75.9%	0.2 nM	0.03 nM	no binding (tested: 100 nM)			0.16 nM	0.03 nM
